The values below come from IntAct's records for PubMed 31515488.

Sequences and labels used below:
B1: E3 ubiquitin-protein ligase MARCHF5 (Homo sapiens), Q9NX47 (parent)
chain: MPDQALQQMLDRSCWVCFATDEDDRTAEWVRPCRCRGSTKWVHQACLQRWVDEKQRGNSTARVACPQCNAEYLIVFPKLGPVVYVLDLADRLISKACPFAAAGIMVGSIYWTAVTYGAVTVMQVVGHKEGLDVMERADPLFLLIGLPTIPVMLILGKMIRWEDYVLRLWRKYSNKLQILNSIFPGIGCPVPRIPAEANPLADHVSATRILCGALVFPTIATIVGKLMFSSVNSNLQRTILGGIAFVAIKGAFKVYFKQQQYLRQAHRKILNYPEQEEA
B2: Pre-mRNA-splicing factor SPF27 (Homo sapiens), O75934 (parent)
chain: MAGTGLVAGEVVVDALPYFDQGYEAPGVREAAAALVEEETRRYRPTKNYLSYLTAPDYSAFETDIMRNEFERLAARQPIELLSMKRYELPAPSSGQKNDITAWQECVNNSMAQLEHQAVRIENLELMSQHGCNAWKVYNENLVHMIEHAQKELQKLRKHIQDLNWQRKNMQLTAGSKLREMESNWVSLVSKNYEIERTIVQLENEIYQIKQQHGEANKENIRQDF
B3: Thioredoxin-dependent peroxide reductase, mitochondrial (Homo sapiens), P30048 (parent)
chain: MAAAVGRLLRASVARHVSAIPWGISATAALRPAACGRTSLTNLLCSGSSQAKLFSTSSSCHAPAVTQHAPYFKGTAVVNGEFKDLSLDDFKGKYLVLFFYPLDFTFVCPTEIVAFSDKANEFHDVNCEVVAVSVDSHFSHLAWINTPRKNGGLGHMNIALLSDLTKQISRDYGVLLEGSGLALRGLFIIDPNGVIKHLSVNDLPVGRSVEETLRLVKAFQYVETHGEVCPANWTPDSPTIKPSPAASKEYFQKVNQ
B4: Tektin-4 (Homo sapiens), Q8WW24 (parent)
chain: MAQTVPPCELPCKEYDVARNTGAYTSSGLATASFRTSKYLLEEWFQNCYARYHQAFADRDQSERQRHESQQLATETQALAQRTQQDSTRTVGERLQDTHSWKSELQREMEALAAETNLLLAQKQRLERALDATEVPFSITTDNLQCRERREHPNLVRDHVETELLKEAELIRNIQELLKRTIMQAVSQIRLNREHKETCEMDWSDKMEAYNIDETCGRHHSQSTEVQAHPYSTTFQESASTPETRAKFTQDNLCRAQRERLASANLRVLVDCILRDTSEDLRLQCDAVNLAFGRRCEELEDARYKLHHHLHKTLREITDQEHNVAALKQAIKDKEAPLHVAQTRLYLRSHRPNMELCRDAAQFRLLSEVEELNMSLTALREKLLEAEQSLRNLEDIHMSLEKDIAAMTNSLFIDRQKCMAHRTRYPTILQLAGYQ
partner: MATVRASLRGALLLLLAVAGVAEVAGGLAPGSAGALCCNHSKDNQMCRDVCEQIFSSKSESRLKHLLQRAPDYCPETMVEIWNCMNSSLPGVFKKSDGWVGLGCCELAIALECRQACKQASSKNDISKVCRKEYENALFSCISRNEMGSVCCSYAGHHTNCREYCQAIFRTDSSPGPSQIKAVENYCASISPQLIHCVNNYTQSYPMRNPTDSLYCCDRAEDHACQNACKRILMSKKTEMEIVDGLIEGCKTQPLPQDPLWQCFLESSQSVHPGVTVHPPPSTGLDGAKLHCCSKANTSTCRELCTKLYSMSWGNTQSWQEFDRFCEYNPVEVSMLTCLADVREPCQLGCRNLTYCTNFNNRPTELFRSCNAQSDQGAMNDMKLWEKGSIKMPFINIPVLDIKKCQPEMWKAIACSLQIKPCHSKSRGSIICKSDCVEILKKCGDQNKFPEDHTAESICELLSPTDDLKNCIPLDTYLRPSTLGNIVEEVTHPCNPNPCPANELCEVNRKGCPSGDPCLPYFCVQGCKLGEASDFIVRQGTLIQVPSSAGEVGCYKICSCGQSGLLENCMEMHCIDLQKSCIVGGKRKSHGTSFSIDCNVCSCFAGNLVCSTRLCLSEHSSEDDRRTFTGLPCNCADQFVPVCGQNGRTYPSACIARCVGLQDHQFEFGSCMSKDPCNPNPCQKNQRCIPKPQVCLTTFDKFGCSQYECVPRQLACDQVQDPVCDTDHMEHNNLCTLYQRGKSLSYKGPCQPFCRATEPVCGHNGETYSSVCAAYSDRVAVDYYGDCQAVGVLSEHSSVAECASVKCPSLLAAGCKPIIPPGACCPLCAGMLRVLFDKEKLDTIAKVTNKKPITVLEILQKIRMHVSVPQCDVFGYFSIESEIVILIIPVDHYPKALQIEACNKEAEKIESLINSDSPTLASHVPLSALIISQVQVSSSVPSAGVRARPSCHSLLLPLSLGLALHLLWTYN
B5: Vesicle transport through interaction with t-SNAREs homolog 1B (Homo sapiens), Q9UEU0 (parent)
chain: MASSAASSEHFEKLHEIFRGLHEDLQGVPERLLGTAGTEEKKKLIRDFDEKQQEANETLAEMEEELRYAPLSFRNPMMSKLRNYRKDLAKLHREVRSTPLTATPGGRGDMKYGIYAVENEHMNRLQSQRAMLLQGTESLNRATQSIERSHRIATETDQIGSEIIEELGEQRDQLERTKSRLVNTSENLSKSRKILRSMSRKVTTNKLLLSIIILLELAILGGLVYYKFFRSH
partner: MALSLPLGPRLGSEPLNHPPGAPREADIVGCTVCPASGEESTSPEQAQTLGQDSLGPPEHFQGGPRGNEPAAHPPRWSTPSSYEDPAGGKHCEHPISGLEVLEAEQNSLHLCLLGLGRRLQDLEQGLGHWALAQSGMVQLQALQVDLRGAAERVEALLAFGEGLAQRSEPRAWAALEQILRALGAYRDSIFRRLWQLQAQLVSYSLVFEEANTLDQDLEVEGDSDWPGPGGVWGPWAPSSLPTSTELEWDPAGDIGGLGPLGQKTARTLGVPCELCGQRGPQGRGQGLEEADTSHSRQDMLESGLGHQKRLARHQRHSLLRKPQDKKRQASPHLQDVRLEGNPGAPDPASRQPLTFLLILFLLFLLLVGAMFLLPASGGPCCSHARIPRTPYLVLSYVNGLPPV
B6: Paraneoplastic antigen-like protein 5 (Homo sapiens), Q96PV4 (parent)
chain: MALTLLEDWCKGMDMDPRKALLIVGIPMECSEVEIQDTVKAGLQPLCAYRVLGRMFRREDNAKAVFIELADTVNYTTLPSHIPGKGGSWEVVVKPRNPDDEFLSRLNYFLKDEGRSMTDVARALGCCSLPAESLDAEVMPQVRSPPLEPPKESMWYRKLKVFSGTASPSPGEETFEDWLEQVTEIMPIWQVSEVEKRRRLLESLRGPALSIMRVLQANNDSITVEQCLDALKQIFGDKEDFRASQFRFLQTSPKIGEKVSTFLLRLEPLLQKAVHKSPLSVRSTDMIRLKHLLARVAMTPALRGKLELLDQRGCPPNFLELMKLIRDEEEWENTEAVMKNKEKPSGRGRGASGRQARAEASVSAPQATVQARSFSDSSPQTIQGGLPPLVKRRRLLGSESTRGEDHGQATYPKAENQTPGREGPQAAGEELGNEAGAGAMSHPKPWET
partner: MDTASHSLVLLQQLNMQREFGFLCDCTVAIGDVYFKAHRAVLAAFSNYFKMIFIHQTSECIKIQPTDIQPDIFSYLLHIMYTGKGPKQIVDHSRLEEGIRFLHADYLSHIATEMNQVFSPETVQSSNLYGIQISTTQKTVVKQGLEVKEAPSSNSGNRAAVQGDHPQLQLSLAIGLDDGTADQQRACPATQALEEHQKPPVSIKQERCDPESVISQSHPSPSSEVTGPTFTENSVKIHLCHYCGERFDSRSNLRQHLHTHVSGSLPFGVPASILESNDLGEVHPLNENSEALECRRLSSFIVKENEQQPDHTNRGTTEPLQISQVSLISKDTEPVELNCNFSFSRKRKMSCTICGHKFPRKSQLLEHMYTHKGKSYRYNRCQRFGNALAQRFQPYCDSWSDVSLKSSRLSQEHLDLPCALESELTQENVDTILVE
B7: Protein FAM13C (Homo sapiens), Q8NE31 (parent)
chain: MFSCFCFSLQDNSFSSTTVTECDEDPVSLHEDQTDCSSLRDENNKENYPDAGALVEEHAPPSWEPQQQNVEATVLVDSVLRPSMGNFKSRKPKSIFKAESGRSHGESQETEHVVSSQSECQVRAGTPAHESPQNNAFKCQETVRLQPRIDQRTAISPKDAFETRQDLNEEEAAQVHGVKDPAPASTQSVLADGTDSADPSPVHKDGQNEADSAPEDLHSVGTSRLLYHITDGDNPLLSPRCSIFSQSQRFNLDPESAPSPPSTQQFMMPRSSSRCSCGDGKEPQTITQLTKHIQSLKRKIRKFEEKFEQEKKYRPSHGDKTSNPEVLKWMNDLAKGRKQLKELKLKLSEEQGSAPKGPPRNLLCEQPTVPRENGKPEAAGPEPSSSGEETPDAALTCLKERREQLPPQEDSKVTKQDKNLIKPLYDRYRIIKQILSTPSLIPTIQEEEDSDEDRPQGSQQPSLADPASHLPVGDHLTYSNETEPVRALLPDEKKEVKPPALSMSNLHEATMPVLLDHLRETRADKKRLRKALREFEEQFFKQTGRSPQKEDRIPMADEYYEYKHIKAKLRLLEVLISKQDVAKTI
B8: Tetraspanin-2 (Homo sapiens), O60636 (parent)
chain: MGRFRGGLRCIKYLLLGFNLLFWLAGSAVIAFGLWFRFGGAIKELSSEDKSPEYFYVGLYVLVGAGALMMAVGFFGCCGAMRESQCVLGSFFTCLLVIFAAEVTTGVFAFIGKGVAIRHVQTMYEEAYNDYLKDRGKGNGTLITFHSTFQCCGKESSEQVQPTCPKELLGHKNCIDEIETIISVKLQLIGIVGIGIAGLTIFGMIFSMVLCCAIRNSRDVI
partner: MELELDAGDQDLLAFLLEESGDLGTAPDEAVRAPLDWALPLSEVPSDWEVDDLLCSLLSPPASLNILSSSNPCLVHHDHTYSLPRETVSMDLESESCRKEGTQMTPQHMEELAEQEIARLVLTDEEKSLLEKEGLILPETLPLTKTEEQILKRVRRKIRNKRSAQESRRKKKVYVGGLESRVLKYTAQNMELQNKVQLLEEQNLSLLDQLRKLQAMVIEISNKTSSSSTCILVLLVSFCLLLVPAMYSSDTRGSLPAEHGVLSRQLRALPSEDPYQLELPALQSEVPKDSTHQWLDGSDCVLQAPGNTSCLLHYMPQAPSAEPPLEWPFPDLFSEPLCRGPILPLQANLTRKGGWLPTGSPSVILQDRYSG

Variants of B1 are the subject of the first assay. Particulars: with ube2w_human UBE2W.
For the variant D202N, the “effect of a mutation on the interaction” value is “with no effect”.

Consider T20A, for which the “effect of a mutation on the interaction” value was “with no effect”.

Variants of B2 are the subject of another assay. Particulars: with itf2_human TCF4, P15884.
itf2_human TCF4, P15884, sequence (P15884 whole entry): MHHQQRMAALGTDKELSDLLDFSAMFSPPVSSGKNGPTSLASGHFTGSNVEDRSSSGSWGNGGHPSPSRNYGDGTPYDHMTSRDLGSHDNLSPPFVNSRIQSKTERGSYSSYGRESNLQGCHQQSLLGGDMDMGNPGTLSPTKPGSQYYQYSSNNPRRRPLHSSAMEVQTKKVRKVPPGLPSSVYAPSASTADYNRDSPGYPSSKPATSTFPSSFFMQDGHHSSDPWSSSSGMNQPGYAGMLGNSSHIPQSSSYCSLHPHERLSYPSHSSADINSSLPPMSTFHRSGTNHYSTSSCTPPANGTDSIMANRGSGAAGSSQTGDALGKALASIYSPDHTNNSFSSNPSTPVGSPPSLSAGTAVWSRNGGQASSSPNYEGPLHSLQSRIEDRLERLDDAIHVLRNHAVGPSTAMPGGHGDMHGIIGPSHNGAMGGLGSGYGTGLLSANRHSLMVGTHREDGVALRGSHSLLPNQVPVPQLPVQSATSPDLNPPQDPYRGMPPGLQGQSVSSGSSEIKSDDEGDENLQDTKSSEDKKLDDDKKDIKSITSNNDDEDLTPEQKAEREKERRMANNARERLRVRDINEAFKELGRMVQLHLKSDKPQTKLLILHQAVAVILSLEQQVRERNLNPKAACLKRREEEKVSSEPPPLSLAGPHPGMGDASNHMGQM
With N139S, the “effect of a mutation on the interaction” value is recorded as “with no effect”.

Variants of B2 are the subject of another assay. To be noted: with hgs_human HGS.
As for N139S, the “effect of a mutation on the interaction” value was “with no effect”.

The next assay covers variants of B2. To be noted: with ikzf3_human IKZF3, Q9UKT9.
ikzf3_human IKZF3, Q9UKT9, sequence (Q9UKT9 whole entry): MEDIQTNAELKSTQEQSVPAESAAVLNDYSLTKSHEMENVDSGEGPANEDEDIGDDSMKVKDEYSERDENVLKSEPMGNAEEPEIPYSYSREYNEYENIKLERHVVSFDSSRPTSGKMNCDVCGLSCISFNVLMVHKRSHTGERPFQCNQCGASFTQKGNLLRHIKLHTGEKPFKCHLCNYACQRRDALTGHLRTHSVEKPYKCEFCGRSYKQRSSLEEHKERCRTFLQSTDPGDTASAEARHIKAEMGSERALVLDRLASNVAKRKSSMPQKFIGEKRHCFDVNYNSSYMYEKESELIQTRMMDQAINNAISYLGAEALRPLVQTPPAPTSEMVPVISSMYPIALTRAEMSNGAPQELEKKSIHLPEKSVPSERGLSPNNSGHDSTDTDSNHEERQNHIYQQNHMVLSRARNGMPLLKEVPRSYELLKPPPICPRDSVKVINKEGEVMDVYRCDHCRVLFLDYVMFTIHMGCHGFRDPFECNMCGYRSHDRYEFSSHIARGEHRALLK
For N139S, the “effect of a mutation on the interaction” value is “with no effect”.

In the next assay the parent is B3. To be noted: with gors2_human GORASP2, Q9H8Y8.
Regarding G173C, the “effect of a mutation on the interaction” value is listed as “with no effect”.

Variants of B4 are the subject of the next assay. To be noted: with reck_human RECK.
Turning to A80V, the “effect of a mutation on the interaction” value was “with no effect”.

Consider C272S, for which the “effect of a mutation on the interaction” value is given as “with no effect”.

In the case of R82C, the “effect of a mutation on the interaction” value was “with no effect”.

Regarding D403N, the “effect of a mutation on the interaction” value was “with no effect”.

S100G: the “effect of a mutation on the interaction” value is on record as “with no effect”.

For the variant R64W, the “effect of a mutation on the interaction” value was “with no effect”.

R255C: the “effect of a mutation on the interaction” value is reported as “with no effect”.

In the case of I404T, the “effect of a mutation on the interaction” value is on record as “disrupting interaction strength”.

As for M374T, the “effect of a mutation on the interaction” value is “with no effect”.

M374V: the “effect of a mutation on the interaction” value is given as “with no effect”.

In another assay the parent is B5. Particulars: with syne4_human SYNE4, Q8N205.
On to R176H, for which the “effect of a mutation on the interaction” value was “with no effect”.

On to R124Q, for which the “effect of a mutation on the interaction” value was “with no effect”.

In a further assay the parent is B6. To be noted: with zbt25_human ZBTB25, P24278.
As to V274M, the “effect of a mutation on the interaction” value was “with no effect”.

Turning to L21Q, the “effect of a mutation on the interaction” value is reported as “disrupting interaction strength”.

For T261A, the “effect of a mutation on the interaction” value was “with no effect”.

As to R312Q, the “effect of a mutation on the interaction” value was “with no effect”.

The variants in another assay derive from B7. Particulars: with tfp11_human TFIP11, Q9UBB9.
tfp11_human TFIP11, Q9UBB9, sequence (Q9UBB9 whole entry): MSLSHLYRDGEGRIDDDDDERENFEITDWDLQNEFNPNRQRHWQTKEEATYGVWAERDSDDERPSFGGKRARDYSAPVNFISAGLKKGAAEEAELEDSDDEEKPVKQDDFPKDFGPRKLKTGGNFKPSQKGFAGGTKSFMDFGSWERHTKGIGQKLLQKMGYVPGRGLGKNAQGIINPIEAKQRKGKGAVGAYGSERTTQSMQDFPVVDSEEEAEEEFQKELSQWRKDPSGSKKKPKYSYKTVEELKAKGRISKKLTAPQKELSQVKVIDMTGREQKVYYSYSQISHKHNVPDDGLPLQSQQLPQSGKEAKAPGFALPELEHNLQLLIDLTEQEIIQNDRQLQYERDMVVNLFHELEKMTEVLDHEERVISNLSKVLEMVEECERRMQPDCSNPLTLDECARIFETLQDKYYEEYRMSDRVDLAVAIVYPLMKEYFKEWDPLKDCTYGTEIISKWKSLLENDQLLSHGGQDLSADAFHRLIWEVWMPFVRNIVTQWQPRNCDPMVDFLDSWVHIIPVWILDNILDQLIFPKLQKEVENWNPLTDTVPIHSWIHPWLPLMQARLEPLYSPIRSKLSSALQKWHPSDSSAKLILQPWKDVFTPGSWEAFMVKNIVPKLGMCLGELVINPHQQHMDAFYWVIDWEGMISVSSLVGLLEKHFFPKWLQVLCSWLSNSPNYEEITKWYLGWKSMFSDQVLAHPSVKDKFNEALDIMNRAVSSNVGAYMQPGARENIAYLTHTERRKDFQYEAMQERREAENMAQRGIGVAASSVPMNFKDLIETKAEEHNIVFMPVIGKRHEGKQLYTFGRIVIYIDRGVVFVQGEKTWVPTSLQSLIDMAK
Regarding P147S, the “effect of a mutation on the interaction” value is “with no effect”.

In another assay the parent is B7. Particulars: with kif2a_human KIF2A.
As to K97R, the “effect of a mutation on the interaction” value was “with no effect”.

The next assay covers variants of B8. Particulars: with creb3_human CREB3, O43889.
As to R118L, the “effect of a mutation on the interaction” value was “with no effect”.
